According to the RNAGym collection of RNA variant scans (doi:10.7554/elife.80360):

B1: HDV Ribozyme (parent)
chain: GGCCGGCAUGGUCCCAGCCUCCUCGCUGGCGCCGGCUGGGCAACAUUCCGAGGGGACCGUCCCCUCGGUAAUGGCGAAUGGGACCCA

Variants of: B1
Test: self-cleavage, relative activity (ratio to wild type); higher = more cleavage; co-transcriptional

Going from GGCCGGCAUGGUCCCAGCCUCCUCGCUGGCGCCGGCUGGGCAAGAUUCCGACGGGACCGUCCCCUCGGUAAUGGCGAAUGGGACCCA to GGCCGGCAUGGUCCCAGCCUCCUCGCUGGCGCCGGCUGGGCAAGAUACCGAGGGGACCGUCCCCUCGGUAAUGGCGAAUGGGACCCA, the self-cleavage falls from 0.724 to 0.653.

Going from GGCCGGCAUGGUCCCAGCCUCCUCGCUGGCGCCGGCUGGGCAAGAUCCCGAGGGGACCGUCCCCUCGGUAAUGGCGAAUGGGACCCA to GGCCGGCAUGGUCCCAGCCUCCUCGCUGGCGCCGGCUGGGCAAGAUGCCGAGGGGACCGUCCCCUCGGUAAUGGCGAAUGGGACCCA, the self-cleavage falls from 0.554 to 0.475.

Compared with GGCCGGCAUGGUCCCAGCCUCCUCGCUGGCGCCGGCUGGGCAAGAUUCCGAGGGGACCGUCCCCACGGUAAUGGCGAAUGGGACCCA, GGCCGGCAUGGUCCCAGCCUCCUCGCUGGCGCCGGCUGGGCAAUAUUCCGAGGGGACCGUCCCCUCGGUCAUGGCGAAUGGGACCCA is higher in self-cleavage: 0.443 for the first, 0.831 for the second.

First: GGCCGGCAUGGUCCCAGCCUCCUCGCUGGCGCCGGCUGGGCAAGAUUCCGAGGUGACCGUCCCCUCGGUAAUGGCGAAUGGGACCCA
Second: GGCCGGCAUGGUCCCAGCCUCCUCGCUGGCGCCGGCUGGGCAAUAUUCCGUGGGGACCGUCCCCUCGGUAAUGGCGAAUGGGACCCA
The self-cleavage of the first is lower: 0.609 for the first, 0.789 for the second.

Going from GGCCGGCAUGGUCCCAGCCUCCUCGCUGGCGCCGGCUGGGCAAUAUUCCGCGGGGACCGUCCCCUCGGUAAUGGCGAAUGGGACCCA to GGCCGGCAUGGUCCCAGCCUCCUCGCUGGCGCCGGCUGGGCAAUAUUCCGGGGGGACCGUCCCCUCGGUAAUGGCGAAUGGGACCCA, the self-cleavage rises from 0.931 to 1.04.

Compared with GGCCGGCAUGGUCCCAGCCUCCUCGCUGGCGCCGGCUGGGCAAUAUUCCGAGGGGACCGUCCCCUCGGUAAUGGCGUAUGGGACCCA, GGCCGGCAUGGUCCCAGCCUCCUCGCUGGCGCCGGCUGGGCAAUAUUCCGAGGGGACCGUCCCCUCGGUAAUGGCGAAUGGGACCCA is higher in self-cleavage: 0.111 for the first, 0.803 for the second.

First: GGCCGGCAUGGUCCCAGCCUCCUCGCUGGCGCCGGCUGGGCAAGAUUCCGAGGGGACCGUCCCCUCGGGAAUGGCGAAUGGGACCCA
Second: GGCCGGCAUGGUCCCAGCCUCCUCGCUGGCGCCGGCUGGGCAAUCUUCCGAGGGGACCGUCCCCUCGGUAAUGGCGAAUGGGACCCA
The self-cleavage of the first is lower: 0.443 for the first, 0.739 for the second.

Going from GGCCGGCAUGGUCCCAGCCUCCUCGCUGGCGCCGGCUGGGCAAGACUCCGAGGGGACCGUCCCCUCGGUAAUGGCGAAUGGGACCCA to GGCCGGCAUGGUCCCAGCCUCCUCGCUGGCGCCGGCUGGGCAAGAGUCCGAGGGGACCGUCCCCUCGGUAAUGGCGAAUGGGACCCA, the self-cleavage falls from 0.748 to 0.609.

Compared with GGCCGGCAUGGUCCCAGCCUCCUCGCUGGCGCCGGCUGGGCAAUAUUCCGAGGGGACCGUCCCCUUGGUAAUGGCGAAUGGGACCCA, GGCCGGCAUGGUCCCAGCCUCCUCGCUGGCGCCGGCUGGGCAAUAUUCCGAGGGGACCGUGCCCUCGGUAAUGGCGAAUGGGACCCA is lower in self-cleavage: 0.817 for the first, 0.786 for the second.

First: GGCCGGCAUGGUCCCAGCCUCCUCGCUGGCGCCGGCUGGGCAAUAUUCCGAGGGGACCGUCACCUCGGUAAUGGCGAAUGGGACCCA
Second: GGCCGGCAUGGUCCCAGCCUCCUCGCUGGCGCCGGCUGGGCAAGAUUCCGAGGGGACCGUCCCCUCGUUAAUGGCGAAUGGGACCCA
The self-cleavage of the first is higher: 0.665 for the first, 0.399 for the second.

Going from GGCCGGCAUGGUCCCAGCCUCCUCGCUGGCGCCGGCUGGGCAAGAUUCCGAGGGGACCGUCCCCUCGAUAAUGGCGAAUGGGACCCA to GGCCGGCAUGGUCCCAGCCUCCUCGCUGGCGCCGGCUGGGCAAGAUUCCGAGGGGACCGUCCCCUCGGUAAUGGCGAAUCGGACCCA, the self-cleavage falls from 0.677 to 0.0405.

Going from GGCCGGCAUGGUCCCAGCCUCCUCGCUGGCGCCGGCUGGGCAAGAUUCCGAGGGGACCGUCCCCUCGGUAAUGACGAAUGGGACCCA to GGCCGGCAUGGUCCCAGCCUCCUCGCUGGCGCCGGCUGGGCAAGAUUCCGAGGGGACCGUCCCCUCGGUAAUGUCGAAUGGGACCCA, the self-cleavage falls from 0.523 to 0.318.

Going from GGCCGGCAUGGUCCCAGCCUCCUCGCUGGCGCCGGCUGGGCAAUAUUCCGAGGGGACCGUCCCCUCGGUAUUGGCGAAUGGGACCCA to GGCCGGCAUGGUCCCAGCCUCCUCGCUGGCGCCGGCUGGGCAAUAUUCCGAGGGGACCGUCCCCUCGGUACUGGCGAAUGGGACCCA, the self-cleavage falls from 0.972 to 0.851.

Compared with GGCCGGCAUGGUCCCAGCCUCCUCGCUGGCGCCGGCUGGGCAAUAUUCCGAGGGGACCGUCCCCUCGGUAGUGGCGAAUGGGACCCA, GGCCGGCAUGGUCCCAGCCUCCUCGCUGGCGCCGGCUGGGCAAGAUUCCGAGGGGACCGUCCCCUCUGUAAUGGCGAAUGGGACCCA is lower in self-cleavage: 0.95 for the first, 0.68 for the second.

Compared with GGCCGGCAUGGUCCCAGCCUCCUCGCUGGCGCCGGCUGGGCAAGAUUCCGAGGGGACCGUCCCCUCAGUAAUGGCGAAUGGGACCCA, GGCCGGCAUGGUCCCAGCCUCCUCGCUGGCGCCGGCUGGGCAAGAUUCCGAGGGGACCGGCCCCUCGGUAAUGGCGAAUGGGACCCA is higher in self-cleavage: 0.65 for the first, 0.76 for the second.

First: GGCCGGCAUGGUCCCAGCCUCCUCGCUGGCGCCGGCUGGGCAAGAUUCCGAGGGGACCGACCCCUCGGUAAUGGCGAAUGGGACCCA
Second: GGCCGGCAUGGUCCCAGCCUCCUCGCUGGCGCCGGCUGGGCAAGAUUCCGAGGGGACCGCCCCCUCGGUAAUGGCGAAUGGGACCCA
The self-cleavage of the first is higher: 0.798 for the first, 0.569 for the second.

Going from GGCCGGCAUGGUCCCAGCCUCCUCGCUGGCGCCGGCUGGGCAAGAUUCCGAGGGGACCGUCCCCUCGGUAAUGGCGAACGGGACCCA to GGCCGGCAUGGUCCCAGCCUCCUCGCUGGCGCCGGCUGGGCAAGAUUCCGAGGGGACCUUCCCCUCGGUAAUGGCGAAUGGGACCCA, the self-cleavage rises from 0.297 to 0.81.

First: GGCCGGCAUGGUCCCAGCCUCCUCGCUGGCGCCGGCUGGGCAAGAUUCCGAGGGGACCCUCCCCUCGGUAAUGGCGAAUGGGACCCA
Second: GGCCGGCAUGGUCCCAGCCUCCUCGCUGGCGCCGGCUGGGCAAUAUUCCGAGGGGACCGUCCCCUCGGUAAUGGCGAAUGGGACCCU
The self-cleavage of the first is higher: 0.95 for the first, 0.718 for the second.

Going from GGCCGGCAUGGUCCCAGCCUCCUCGCUGGCGCCGGCUGGGCAAGAUUCCGAGUGGACCGUCCCCUCGGUAAUGGCGAAUGGGACCCA to GGCCGGCAUGGUCCCAGCCUCCUCGCUGGCGCCGGCUGGGCAAUAUUGCGAGGGGACCGUCCCCUCGGUAAUGGCGAAUGGGACCCA, the self-cleavage falls from 0.939 to 0.567.

Going from GGCCGGCAUGGUCCCAGCCUCCUCGCUGGCGCCGGCUGGGCAAUAUUCCGAGGGGAUCGUCCCCUCGGUAAUGGCGAAUGGGACCCA to GGCCGGCAUGGUCCCAGCCUCCUCGCUGGCGCCGGCUGGGCAAUAUUCCGAGGGGAGCGUCCCCUCGGUAAUGGCGAAUGGGACCCA, the self-cleavage falls from 0.704 to 0.612.

Going from GGCCGGCAUGGUCCCAGCCUCCUCGCUGGCGCCGGCUGGGCAAUAUUCAGAGGGGACCGUCCCCUCGGUAAUGGCGAAUGGGACCCA to GGCCGGCAUGGUCCCAGCCUCCUCGCUGGCGCCGGCUGGGCAAUAUUCUGAGGGGACCGUCCCCUCGGUAAUGGCGAAUGGGACCCA, the self-cleavage rises from 0.892 to 0.96.

Going from GGCCGGCAUGGUCCCAGCCUCCUCGCUGGCGCCGGCUGGGCAAUAUUCGGAGGGGACCGUCCCCUCGGUAAUGGCGAAUGGGACCCA to GGCCGGCAUGGUCCCAGCCUCCUCGCUGGCGCCGGCUGGGCAAGAUUCCGAGGGGACCGUCCCCUCGGUAAUAGCGAAUGGGACCCA, the self-cleavage falls from 0.935 to 0.522.

Going from GGCCGGCAUGGUCCCAGCCUCCUCGCUGGCGCCGGCUGGGCAAUAUUCCGAGGGGACCGUCCCCUCGGUAAUGGCGAAUGGGGCCCA to GGCCGGCAUGGUCCCAGCCUCCUCGCUGGCGCCGGCUGGGCAAUAUUCCGAGGGGACCGUCCCCUCGGUAAUGGCGAAUGGGUCCCA, the self-cleavage falls from 0.48 to 0.208.

Going from GGCCGGCAUGGUCCCAGCCUCCUCGCUGGCGCCGGCUGGGCAAGAUUCCGAGGGGACCGUCCCCUCGGUAAUGGCGAAUGGAACCCA to GGCCGGCAUGGUCCCAGCCUCCUCGCUGGCGCCGGCUGGGCAAGAUUCCGAGGGGACCGUCCCCUCGGUAAUGGCGAAUGGCACCCA, the self-cleavage falls from 0.309 to 0.0504.

Going from GGCCGGCAUGGUCCCAGCCUCCUCGCUGGCGCCGGCUGGGCAAGAUUCCGAGGGUACCGUCCCCUCGGUAAUGGCGAAUGGGACCCA to GGCCGGCAUGGUCCCAGCCUCCUCGCUGGCGCCGGCUGGGCAAGAUUCCGAGGGCACCGUCCCCUCGGUAAUGGCGAAUGGGACCCA, the self-cleavage rises from 0.65 to 0.898.

Compared with GGCCGGCAUGGUCCCAGCCUCCUCGCUGGCGCCGGCUGGGCAAGAUUCCGAGGGGACCGUCCCCUCGGUAAGGGCGAAUGGGACCCA, GGCCGGCAUGGUCCCAGCCUCCUCGCUGGCGCCGGCUGGGCAAGAUUCCGAGGGGACCGUCCCCUCGGUAAAGGCGAAUGGGACCCA is lower in self-cleavage: 0.446 for the first, 0.229 for the second.

Compared with GGCCGGCAUGGUCCCAGCCUCCUCGCUGGCGCCGGCUGGGCAAGAUUCCGAGGGGACCGUCCCCUCGGUAAUGGCCAAUGGGACCCA, GGCCGGCAUGGUCCCAGCCUCCUCGCUGGCGCCGGCUGGGCAAGAUUCCGAGGGGACCGUCCCCUCGGUAAUGGCUAAUGGGACCCA is higher in self-cleavage: 0.511 for the first, 1.03 for the second.

Going from GGCCGGCAUGGUCCCAGCCUCCUCGCUGGCGCCGGCUGGGCAAGAUUCCGAGGGGACCGUCCCCUCGGUAAUGGCAAAUGGGACCCA to GGCCGGCAUGGUCCCAGCCUCCUCGCUGGCGCCGGCUGGGCAAGAUUCCGAGGGGACCGUCCCCUCGGUAAUGGCGAAUGAGACCCA, the self-cleavage falls from 0.8 to 0.277.

First: GGCCGGCAUGGUCCCAGCCUCCUCGCUGGCGCCGGCUGGGCAAGAUUCCGAGGGGACCGUCCCCUCGGUAAUGGCGAAUGUGACCCA
Second: GGCCGGCAUGGUCCCAGCCUCCUCGCUGGCGCCGGCUGGGCAAUAUUCCGAGGGGACAGUCCCCUCGGUAAUGGCGAAUGGGACCCA
The self-cleavage of the first is lower: 0.271 for the first, 1.07 for the second.

First: GGCCGGCAUGGUCCCAGCCUCCUCGCUGGCGCCGGCUGGGCAAUAUUCCGAGGGGACCGUCCCUUCGGUAAUGGCGAAUGGGACCCA
Second: GGCCGGCAUGGUCCCAGCCUCCUCGCUGGCGCCGGCUGGGCAAUAUUCCGAGGGGACCGUCCCAUCGGUAAUGGCGAAUGGGACCCA
The self-cleavage of the first is higher: 0.876 for the first, 0.408 for the second.

First: GGCCGGCAUGGUCCCAGCCUCCUCGCUGGCGCCGGCUGGGCAAUAUUCCGAGGGGACCGUCCCCUCGGUAAUGGCGAUUGGGACCCA
Second: GGCCGGCAUGGUCCCAGCCUCCUCGCUGGCGCCGGCUGGGCAAUAUUCCGAGGGGACCGUCCCCUCGGUAAUGGCGAAUGGGAGCCA
The self-cleavage of the first is lower: 0.148 for the first, 0.404 for the second.

Going from GGCCGGCAUGGUCCCAGCCUCCUCGCUGGCGCCGGCUGGGCAAUAUUCCGAGGGGACCGUCCGCUCGGUAAUGGCGAAUGGGACCCA to GGCCGGCAUGGUCCCAGCCUCCUCGCUGGCGCCGGCUGGGCAAUAUUCCGAGGGGACCGUCCACUCGGUAAUGGCGAAUGGGACCCA, the self-cleavage rises from 0.594 to 0.819.
